Test results published in the domain aggregation screens of Martell et al. (2025).

Assay: soluble fraction after stress (log2 fold change); higher = more stays soluble; pooled small domains, quantitative proteomics
Conditions: stress: pH 4
Method in brief: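 Aggregation propensity is estimated from the fold change in each domain's soluble amount after acid stress. Pooled small-domain libraries were stressed at pH 4, and higher log2 values mean more stayed soluble.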
In the case of “HMERLSVSMGDMVVFVRDAVEAFRGLVKEKGITLTFESKVEHFYMNYDHDKVYKVVNNLLSNAVKFT”, the “soluble fraction (log2)” value is reported as -1.31. With “HMKAQVKSVLDEIPGVGPTRRKALMKHFTSIEEIKQAEFETLLEAEGMNRAAAQSVYDFFHN” the “soluble fraction (log2)” value was -0.491. In the case of “HMLVKKYTEEETGRQAELSKQLAELSKAYYNTGNSMVDDAVFDKLRDELSSLEKESGFAYDISPNVS”, the “soluble fraction (log2)” value is reported as -0.276. For “HMHQIFAETVFEDIAFGPRNKGFNEEEVAKQVREAMAFVGLDYDTYAQRSPFQLSGGQMRRVAIAGVVA”, the “soluble fraction (log2)” value was -0.874. For “HMSLNIIEITAKKEINELKSFNIIYFNFDKNNSIYEYKISEREKKEILEIEKIIKNSDNVTNYEIRYSF”, the “soluble fraction (log2)” value was -0.685. For “HMSHGFFTLQSDDLNLLRTVLEGHSSIGDIKIEGIQLVAYLKEPLNGAELNKILFEKGINLSYLVHRK”, the “soluble fraction (log2)” value was -1.52. In the case of “HMDLDPVEKLHLLSQLYVGQLKGSFVVKEKNQKTTIIGEVRELSHQTLSIRTNEGYRLIEVADILEIRLWE”, the “soluble fraction (log2)” value is reported as -0.362. In the case of “HMTYMWTTDGVNLRSEPNTDSAVVTVLGVGTQVRMIGEEDGWVKVSFNDQEGYIRADFLTTE”, the “soluble fraction (log2)” value is reported as -0.476. With “HMGNTMIVILKHEARQEQIDRLKQFLLGMGLRIDESKGENSTILGLVGDTTRVDADLISSLDAVEAVRRV” the “soluble fraction (log2)” value was -0.626. With “HMSSESIIIKKLIEEFIHNENKYSPLSDEKLSYLLKNKGFSVARRTVAKYRDELGILSTRERKIKI” the “soluble fraction (log2)” value was 0.393. With “HMAGSGLPVPRFVSLADDRVNARAGPGFRFPINWVYLRKGFPVEVVDEFGPWRRIRDIDGVAAWIHLSMLS” the “soluble fraction (log2)” value was -0.848. With “HMYMWQVEDLIRANGLDIERIKDSIIRPYELDEERKRELTQWYEDLIDMMRREGVAQSGHLQIN” the “soluble fraction (log2)” value was -2.24. With “HMEKVTPEMIAEYNALAKKYNSNPEVVFKKKEIQRLKYIYSLMSEKQKETAEVFPNIPPPPPT” the “soluble fraction (log2)” value was -0.599. In the case of “HMFRSNAERAAHLASALPRAEAELAALQARGAATSENIYLRSSYFDALRYTEELRAAKRAQDALQGA”, the “soluble fraction (log2)” value is reported as 0.0123. In the case of “HMLSSEQQQKLDSLSRKELEVAELVSHGATNKMIARTMNITERTVKAHLTAIFQKMNIPDRLSLAIFFRDL”, the “soluble fraction (log2)” value is reported as 0.0769. With “HMSEPQEISYSDFIEQVNRNEIRQVEFDGQHEYLTVIRKDTSRFKVIIPAPDPRLLDDLMEHDVEIVGKE” the “soluble fraction (log2)” value was 0.0554. With “HMSAAMTESVLDGIPGLGATRKAALLAHFGSVRKLRAATSEQVREVPGIGPRLAETILATLHEP” the “soluble fraction (log2)” value was 0.0277. For “HMRALPAGQADLLKWIDGVTPRSVEELELLSGLEPGRLSELLMELELAGIVRAVAGDSYIKISKS”, the “soluble fraction (log2)” value was -0.534. In the case of “HMTTLEGIEKYLGSGMIRGIGPAYAGRLTKVFGEAVFDVIEQSPERLREVEGIGPKRVSRIVSGWAEQ”, the “soluble fraction (log2)” value is reported as -0.707. With “HMEEEEITIHIIGEVKYPGIVILKTGQRIIDAIDAAGGETEEADLNKINLAQLLSDGDKIYVPSINDN” the “soluble fraction (log2)” value was -1.05. With “HMNLEQTIVLGKRLFNNALDTLGKKQRSIKNKQINKLLELLNFKNMNELYQSIGVGDKNPLLMAQMML” the “soluble fraction (log2)” value was -0.045. For “HMENTFNENLRRIRKEKKITQEQLAEFVGVSPQAVSKWEMNSFPDASLLPKIAEKLEVSIDELFGLK”, the “soluble fraction (log2)” value was -0.225. For “HMEDKQRRMGELVALLNRAAYAYYTKDEPIMADVQYDRLYDELLSLEKETGVQMADSPTHRV”, the “soluble fraction (log2)” value was -0.871. For “HMEKEFLFNGGKVVMNYEADRIQIMHDTKPGQDVITLMKKNGFKWSPFNKAWQRQITANAIYTTKHLINQ”, the “soluble fraction (log2)” value was -0.6. In the case of “HMEVPTGNHIRRWRKSLDITQVKLSSLSGVAQSIIAKIENETVDPRVSTLRKLVEALSRFENP”, the “soluble fraction (log2)” value is reported as -0.358. In the case of “HMAVVIPDVKGMTIEEAAPFLAEKGIRYNIIDSVFSKDVDPGAIVEIVPTPGSKVKEGRIVFVTINAK”, the “soluble fraction (log2)” value is reported as -0.774. For “HMEAPWQEIKRQVMDGLDMSREFTDEELRERIALAVRSYSKEKLLSLKVRESYEEQIFNSFR”, the “soluble fraction (log2)” value was -0.261. For “HMSVLVLPMLKELTHEDREVVELFYLNDMSVREIALIISVPIGTVKSRLHRARAQLKHQIVNLNQ”, the “soluble fraction (log2)” value was -1.18. For “HMRSGFAFSEEEIKHLDNIVSPLLIKGQSIHHISIFHKDEVMMSERTLYSYVNNGLFSARNIDMPRTVRMR”, the “soluble fraction (log2)” value was 0.218. In the case of “HMIAAVIAQVANTNERIILEKRYLSFKSWDEIAVEMRISPRWAYTLHERALKAVDQVLSKQNNE”, the “soluble fraction (log2)” value is reported as -2.54. With “HMNPFPDNTAEVLSQFKNIIVPELNTGQLSKLLRARYLVDTVGINKVEGLPFTAQELEEKIESLINSF” the “soluble fraction (log2)” value was -0.705.
